In series [1] the target is β-casein from bovine milk (bovine). Kind of series: SEC; Superose 12 HR 10/30, room temperature, 50 mM Na2HPO4/NaH2PO4 pH 8.0, 250 mM NaCl; single proteins, HtrA3 proteins at 3 mg/ml, 50 μl loaded.
Series [2] has as its target ΔN-HtrA3 (residues 130–453–His6), proteolytically active (human) (UniProt P83110).
The target in series [3] is ΔN-HtrA3-ΔPDZ (residues His6–122–349), proteolytically active (human) (UniProt P83110).
Series [4] addresses ΔN-HtrA3S (residues 130–357–His6), proteolytically active (human) (UniProt P83110).
Series [5] concerns the molecule itself. Kind of series: crystal structure; ΔN-HtrA3 S305A, sitting-drop vapor diffusion, 1 M sodium/potassium phosphate buffer pH 5.0, 16°C; three molecules per asymmetric unit; 3.27 Å.

*1 amine or outer side, *2 acyl side, *3 side chain or, on linkers, in order; H or OH if unused. The star is where a group is joined. Benzoyl(5-NH,2-NO2) = O=C(c1cc(N[*:1])ccc1[N+](=O)[O-])[*:2]; Mca = COc1ccc2c(CC(=O)*)cc(=O)oc2c1

ΔN-HtrA3-ΔPDZ (residues His6–122–349), proteolytically active (human), sequence (P83110 122-349, stated change not applied): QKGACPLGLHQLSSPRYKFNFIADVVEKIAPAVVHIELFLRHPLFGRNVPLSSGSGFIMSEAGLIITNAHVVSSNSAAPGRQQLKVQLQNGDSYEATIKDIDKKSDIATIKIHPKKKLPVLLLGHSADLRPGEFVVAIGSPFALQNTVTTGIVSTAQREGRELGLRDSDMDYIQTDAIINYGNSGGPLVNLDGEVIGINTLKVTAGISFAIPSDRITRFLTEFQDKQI

Consider “β-casein from bovine milk (natural protein)”, for which the stoichiometry N (as a rule, the number of molecules, sites or subunits per partner or assembly) in series [1] amounted to 3.

B1: Fluorescent substrate Ala(Mca)IRRVSYSF–ANB–NH2 (peptide)
peptide: Mca-AIRRVSYSF-{Benzoyl(5-NH,2-NO2)-NH2}
SMILES: CC[C@H](C)[C@H](NC(=O)[C@H](C)NC(=O)Cc1cc(=O)oc2cc(OC)ccc12)C(=O)N[C@@H](CCCNC(=N)N)C(=O)N[C@@H](CCCNC(=N)N)C(=O)N[C@H](C(=O)N[C@@H](CO)C(=O)N[C@@H](Cc1ccc(O)cc1)C(=O)N[C@@H](CO)C(=O)N[C@@H](Cc1ccccc1)C(=O)Nc1ccc([N+](=O)[O-])c(C(N)=O)c1)C(C)C
As to B1, the Km [μM] of cleavage of the peptide Ala(Mca)IRRVSYSF-ANB-NH2 (0.02 to 6 μM), 50 nM enzyme, 30°C, Michaelis-Menten fit came to 0.958 µM in series [2], 0.878 µM in series [3] and 0.74 µM in series [4].

B2: ΔN-HtrA3_(S305A) (residues 130–453–His6), proteolytically inactive N-terminally truncated HtrA3L with protease and PDZ domains (domain or fragment, human, UniProt P83110 130-453, looked up)
chain: LHQLSSPRYKFNFIADVVEKIAPAVVHIELFLRHPLFGRNVPLSSGSGFIMSEAGLIITNAHVVSSNSAAPGRQQLKVQLQNGDSYEATIKDIDKKSDIATIKIHPKKKLPVLLLGHSADLRPGEFVVAIGSPFALQNTVTTGIVSTAQREGRELGLRDSDMDYIQTDAIINYGNAGGPLVNLDGEVIGINTLKVTAGISFAIPSDRITRFLTEFQDKQIKDWKKRFIGIRMRTITPSLVDELKASNPDFPEVSSGIYVQEVAPNSPSQRGGIQDGDIIVKVNGRPLVDSSELQEAVLTESPLLLEVRRGNDDLLFSIAPEVVM
notes: human HtrA3 long isoform (HtrA3L), residues 130-453: serine protease domain and PDZ domain, catalytic serine changed to alanine; Chain A of the structure runs to residue 459, that is into the His tag; also called ΔN-HtrA3-His6; pPG1; source: E. coli BL21(DE3) clpP::Cm r, purified (Ni-NTA; before crystallization also Superdex 200 gel filtration); not shown: His6, C-terminal, kept
Regarding B2, in series [5], the “stoichiometry N” value is 3.

The values above are taken from article PMC4481513, “Structural and Functional Analysis of Human HtrA3 Protease and Its Subdomains” (PLoS ONE, 2015).
